US20170137467A1 (CHROMOTEK, published 2017)
Substitutions are numbered along the chain they refer to. Values belong to the binder of their own block, whether it stands above or below them. Square brackets hold non-standard residues; d marks the D form. GABA = NCCCC(=O)O

Assays:
Assay in all cases: library pulldown, LC-MS of supernatant; ratio vs GFP-Nb control (0=captured, 1=not captured)
BC2T A6(I/L2) = target: T1, BC2T A6(I/L2)
T1 construct: position 6 library (BC2TA6X), row I/L2
From the text: (§1) In total, 12 different BC2T libraries displaying all 20 proteinogenic amino acids in one single position of the peptide were used in immunoprecipitation experiments. […] The direct comparison with the GFP-Nb made it possible to determine the quantitative degree of peptide capture without the need of labeled standards. […] The more peptide was captured the more the value approximates 0. It was not possible to discriminate between isoleucine (I) and leucine (L) peptide versions since these peptides are isobaric.
(§2) To investigate the binding specificity of the BC2T and derived mutants peptide libraries for each amino acid position of the sequence […] (SEQ ID NO:4) were synthesized with acetyl and amide groups located at the N-termini or C-termini respectively (Intavis). […] Incubations were performed in 300 μl PBS/0.01% CHAPS for 1 h on a HulaMixer (Life Technologies). Subsequent to a centrifugation step 10 μl supernatant were analyzed in a LC-MS procedure. Peptides were separated using an UltiMate3000 RSLCnano System (Thermo Scientific), composed of a C18 PepMap100μ-Precolumn (300 μm×5 mm; particle size: 5 μm; pore size: 100 Å—Thermo Scientific) and a C18 analytical column (Acclaim Rapid Separation LC (RSLC) Column: 150 mm×5 mm; particle size: 2.2 μm; pore size: 100 Å—Thermo Scientific). A step gradient was applied starting at 8% and ending after 20 min at 30% eluent B (80% acetonitrile, 20% H₂O, 0.1% formic acid).

BC2T P1A = target: T2, BC2T P1A (human)
T2 construct: position 1 library, row A
T2 peptide: Ac-ADRKAAVSHWQQ-NH2
From the text: as §1, §2

BC2T V7F = target: T3, BC2T V7F (human)
T3 construct: position 7 library, row F
T3 peptide: Ac-PDRKAAFSHWQQ-NH2
From the text: as §1, §2

BC2T A5(I/L2) = target: T4, BC2T A5(I/L2)
T4 construct: position 5 library, row I/L2
From the text: as §1, §2

BC2T V7A = target: T5, BC2T V7A (human)
T5 construct: position 7 library, row A
T5 peptide: Ac-PDRKAAASHWQQ-NH2
From the text: as §1, §2

BC2T R3V = target: T6, BC2T R3V (human)
T6 construct: position 3 library (BC2TR3X), row V
T6 peptide: Ac-PDVKAAVSHWQQ-NH2
From the text: as §1, §2

BC2T P1C(Abu) = target: T7, BC2T P1C(Abu) (human, SMILES …)
T7 construct: position 1 library, row C(Abu) / C*
T7 peptide: Ac-[GABA]DRKAAVSHWQQ-NH2
From the text: as §1, §2

BC2T V7(I/L2) = target: T8, BC2T V7(I/L2)
T8 construct: position 7 library, row I/L2
From the text: as §1, §2

BC2T D2(I/L2) = target: T9, BC2T D2(I/L2)
T9 construct: position 2 library, row I/L2
From the text: as §1, §2

BC2T D2Y = target: T10, BC2T D2Y (human)
T10 construct: position 2 library, row Y
T10 peptide: Ac-PYRKAAVSHWQQ-NH2
From the text: as §1, §2

BC2T K4V = target: T11, BC2T K4V (human)
T11 construct: position 4 library, row V
T11 peptide: Ac-PDRVAAVSHWQQ-NH2
From the text: as §1, §2

BC2T A5N = target: T12, BC2T A5N (human)
T12 construct: position 5 library, row N
T12 peptide: Ac-PDRKNAVSHWQQ-NH2
From the text: as §1, §2

BC2T D2P = target: T13, BC2T D2P (human)
T13 construct: position 2 library, row P
T13 peptide: Ac-PPRKAAVSHWQQ-NH2
From the text: as §1, §2

BC2T D2(I/L1) = target: T14, BC2T D2(I/L1)
T14 construct: position 2 library, row I/L1
From the text: as §1, §2

BC2T D2G = target: T15, BC2T D2G (human)
T15 construct: position 2 library, row G
T15 peptide: Ac-PGRKAAVSHWQQ-NH2
From the text: as §1, §2

BC2T R3A = target: T16, BC2T R3A (human)
T16 construct: position 3 library (BC2TR3X), row A
T16 peptide: Ac-PDAKAAVSHWQQ-NH2
From the text: as §1, §2

BC2T V7M = target: T17, BC2T V7M (human)
T17 construct: position 7 library, row M
T17 peptide: Ac-PDRKAAMSHWQQ-NH2
From the text: as §1, §2

BC2T A5M = target: T18, BC2T A5M (human)
T18 construct: position 5 library, row M
T18 peptide: Ac-PDRKMAVSHWQQ-NH2
From the text: as §1, §2

BC2T A6M = target: T19, BC2T A6M (human)
T19 construct: position 6 library (BC2TA6X), row M
T19 peptide: Ac-PDRKAMVSHWQQ-NH2
From the text: as §1, §2

BC2T A5Y = target: T20, BC2T A5Y (human)
T20 construct: position 5 library, row Y
T20 peptide: Ac-PDRKYAVSHWQQ-NH2
From the text: as §1, §2

BC2T K4N = target: T21, BC2T K4N (human)
T21 construct: position 4 library, row N
T21 peptide: Ac-PDRNAAVSHWQQ-NH2
From the text: as §1, §2

BC2T K4A = target: T22, BC2T K4A (human)
T22 construct: position 4 library, row A
T22 peptide: Ac-PDRAAAVSHWQQ-NH2
From the text: as §1, §2

BC2T P1V = target: T23, BC2T P1V (human)
T23 construct: position 1 library, row V
T23 peptide: Ac-VDRKAAVSHWQQ-NH2
From the text: as §1, §2

- ratio (BC2T A6(I/L2)): 0.9
- ratio (BC2T P1A): 0.1
- ratio (BC2T V7F): 0.2
- ratio (BC2T A5(I/L2)): 0.1
- ratio (BC2T V7A): 0.4
- ratio (BC2T R3V): 0.3
- ratio (BC2T P1C(Abu)): 0.1
- ratio (BC2T V7(I/L2)): 0.2
- ratio (BC2T D2(I/L2)): 0.2
- ratio (BC2T D2Y): 0.1
- ratio (BC2T K4V): 0.1
- ratio (BC2T A5N): 0.3
- ratio (BC2T D2P): 0.6
- ratio (BC2T D2(I/L1)): 0.1
- ratio (BC2T D2G): 0.3
- ratio (BC2T R3A): 0.7
- ratio (BC2T V7M): 0.3
- ratio (BC2T A5M): 0.1
- ratio (BC2T A6M): 1
- ratio (BC2T A5Y): 0.1
- ratio (BC2T K4N): 0.5
- ratio (BC2T K4A): 0.2
- ratio (BC2T P1V): 0.2
B1: BC2 nanobody (BC2-Nb) (VHH)
VHH: QVQLVESGGGLVQPGGSLTLSCTASGFTLDHYDIGWFRQAPGKEREGVSCINNSDDDTYYADSVKGRFTIFMDNAKDTVYLQMNSLKPEDTAIYYCAEARGCKRGRYEYDFWGQGTQVTVSS
notes: immobilised on agarose/sepharose beads in this assay; also called BC2 nanotrap (immobilised form); not shown: C-terminal 6xHis-tag added by pHEN6 vector

- ratio (BC2T A6(I/L2)): 0.9
- ratio (BC2T P1A): 0.3
- ratio (BC2T V7F): 0.4
- ratio (BC2T A5(I/L2)): 0.2
- ratio (BC2T V7A): 0.7
- ratio (BC2T R3V): 0.7
- ratio (BC2T P1C(Abu)): 0.3
- ratio (BC2T V7(I/L2)): 0.4
- ratio (BC2T D2(I/L2)): 0.3
- ratio (BC2T D2Y): 0.2
- ratio (BC2T K4V): 0.2
- ratio (BC2T A5N): 0.5
- ratio (BC2T D2P): 0.8
- ratio (BC2T D2(I/L1)): 0.2
- ratio (BC2T D2G): 0.5
- ratio (BC2T R3A): 0.9
- ratio (BC2T V7M): 0.5
- ratio (BC2T A5M): 0.2
- ratio (BC2T A6M): 0.9
- ratio (BC2T A5Y): 0.2
- ratio (BC2T K4N): 0.9
- ratio (BC2T K4A): 0.6
- ratio (BC2T P1V): 0.4
B2: BC2-NbR106S (VHH)
VHH: B1 VHH with R106S
notes: immobilised on beads in this assay; not shown: C-terminal 6xHis-tag added by pHEN6 vector

- ratio (BC2T A6(I/L2)): 0.8
- ratio (BC2T P1A): 0.2
- ratio (BC2T A5(I/L2)): 0.1
- ratio (BC2T V7A): 0.5
- ratio (BC2T R3V): 0.5
- ratio (BC2T V7(I/L2)): 0.2
- ratio (BC2T D2(I/L2)): 0.2
- ratio (BC2T K4V): 0.1
- ratio (BC2T D2(I/L1)): 0.1
- ratio (BC2T D2G): 0.4
- ratio (BC2T R3A): 1
- ratio (BC2T V7M): 0.3
- ratio (BC2T A5M): 0.1
- ratio (BC2T A6M): 1
- ratio (BC2T K4A): 0.4
- ratio (BC2T P1V): 0.3
B3: BC2-NbR106E (VHH)
VHH: B1 VHH with R106E
notes: as for B2
